Measurements as given in the DeepSol protein solubility set.

Experiment: soluble on expression in E. coli; label from the status in PepcDB or PDB records

Sequence	soluble on expression in E. coli
MHHHHHHSSGRENLYFQGPPARVRVAVRLRPFVDGTAGASDPPCVRGMDSCSLEIANWRNHQETLKYQFDAFYGERSTQQDIYAGSVQPILRHLLEGQNASVLAYGPTGAGKTHTMLGSPEQPGVIPRALMDLLQLTREEGAEGRPWALSVTMSYLEIYQEKVLDLLDPASGDLVIREDCRGNILIPGLSQKPISSFADFERHFLPASRNRTVGATRLNQRSSRSHAVLLVKVDQRERLAPFRQREGKLYLIDLAGSEDNRRTGNKGLRLKESGAINTSLFVLGKVVDALNQGLPRVPYRDSKLTRLLQDSLGGSAHSILIANIAPERRFYLDTVSALNFAARSKEVINRPFTNESLQPHALGPVKLSQKELLGPPEAK	soluble
MRFEYDLLIVAASPLALDIAYRCAPLGRIGLVIPPPDGQWQWQWQRWWLSQFPPRTLDAQHWQHFQAHLSHGQRRYAPAVLELVGVDVITGVGEFVWRPRCHFQVGGDRLYARGYLLLDAPAAMDFQDMDALSRIELACWHYWSGKAPNADAQGLPVVTTEDAWFNDRLHAALKALGLAIPGSGKRKAPDFSPLHLHPLQRDAQGWLRLNRYGRTSHPQIYACGGWQRGYHLPSLTYFEAFAIARQILQRRPIPLDYRSQPWWIALPIPMARVGWNGRQAQQSLREPIQLWEIQQWSPEGQSLGQVVINRQGRLLGATLIGRAAIASSRIFGRCLDENAFAAITYAGWELDCQRQRSPKARRLPKSGSGLDSPLPLEHHHHHH	soluble
MGSDKIHHHHHHMNRIQLSQLAVLATVAETSSFRKAAEELGIAPSAVSHAVSALEASLGVRLLARTTRSVAPTEEGRQLLQKLAPALADIGTALETLAENKSNPAGPLRITMPALAAEDLIVPRLGDFLGLYPDIQLELITNDQFEDIVEKGFDAGLRLGEHLETDMVAVKASGPISGTIIGAPSYFERHPLPVHPHDLMEHRCIRRRFSSGRIYRWELEKHGKQIAVDVPDVLTLADQRLIRLAALKGVGLAFVFDQRVDKDIREGRLIRVLEDWCPPFDGFYIYYPTRRQMRPALRAFVDFFRHRS	not soluble
SLPLPLVVAVLDSEDEKEGRTCAIVAFGFRYIHPASGAQVDVPEGYVTDFASIPAPVRGLFPPFGRHAKAAVLHDWLYLIGEPGQRAFADRIFLDAMDDLRVSLVRRSIMHRAVRLAGGGAYAKEASTWARAFGNWRTGDRHTPPFTAESRYQAHWPVPPRPDFRP	not soluble
PPIILQGPANQTLAVDGTALLKCKATGDPLPVISWLKEGFTFPGRDPRATIQEQGTLQIKNLRISDTGTYTCVATSSSGETSWSAVLDVTESG	soluble
MGSDKIHHHHHHMKIEFDVVVVGAGPSGLSCAYVLAKNGLKVAVVEKGEYPGSKNVMGGVLYVHPLKEIMPDFLEKAANSKALERNVIEQNLWLLGNEGVIKIGHRNVEWKENPNAFTVLRANFDRWFAQEVEKAGALIIPKTKVEDFLRNEKGEIAGVVTSRPKGEIHSKAVVIAEGVNPILTMKAGLRKEDLKPHMVAVAVKEVISVPEDVVNRVFGVEGNDGATIELLGSWSEGMFGMGFLYANRSSVSLGCGVLLEDLRKKKIKPYQLLENLKNHPVISDMLGEYRNNTMEYLAHLIPEGGYYAMPKVYGDRVLVCGDAAMLVNSIHREGSNHAITSGRLAAETLLEAFEKGDFSEKILKNYYLRLKESFILKDLEKYKDLMPTMEKNHQFVEIYPDLANDALKRFLQVDGTPKWDVQKQIADMVLSRRSLIGISLDLLRFWRAVR	not soluble
MPLLDIRHLTIEIDTPQGLVKAVDRMSLTMNEGEIRGLVGESGSGKSLVAKAIVGICKENWRVTADRMRLGNIDLLQLTPRERRRVIARDVAMIFQEPSTCLDPSEEVGRQLIESIPFRTFEGRWWERFTWRKKQAIALLHKVGIKDHKDIMSSYPYELTDGECQKVMIAMAIAAKPKLLIADEPTNDVDPITQSQILRLLSRMNQVNNTSILLIGHDLTTITQWADRITVMYCGQSVESAETAKIVAEPKHPYTAALLKAMPDFSDWIPHKQKLQSLPGSIPPLQHLPIGCRLGPRCPYAQRQCVEVPHSRWVKNHKFSCHFPLNMESPQ	not soluble
MTSSDKSLSHDVFVYGSFQEPSVVNLILECSPVMVPAQLHGYHVYRLKGRLHACISPSENGLINGKILTGLTDSQLENLDMIEGSEYVRKTVEVVLTDTSEKKQVETYVWANKDDPNLYGEWDFEEWRRLHMDKFIEASTKFIEWKKNPDGRSREEFEKFVFDDPPTAA	soluble
MNREFVEAMQHLALERGVSVEEILKAFKRALRKAYIKRQKGYKKEEIDQGKGPEVDVYIDPNSGRIEMVKVRRVVEKVEDPDKEIALAEALQYDPEVQVGDEMEFPINPEELSRMAIQDLRQILTQRLKESERNRIYNEYKDKEGQVLTGVVTRVDNRGNVFVELGRGEAYLPRSEQIPTEKYHPGQRIKVYLKKVDKSAKGPSLLVSRAHEKLLEHLLKQEVPEIAEGIVEIKAIAREPGRRSKVAVTSHNPNVDPIGACIGHKGQRIQAVSAELGREKVDIILWSKDPKEFIRNALSPAQVGSIELDPEAKKARVKVTKDQHSLAIGTGGQNVRLASKLTGYDIHFEEAEISDLDEALRRAAEEEAEARERKAREEFEKLFRDLG	soluble
MIDLHCHSTVSDGMLSPAEVVRLAHQNGCTLLALTDHDHTGGIAEARAEADKLGLRLINGVEISVTWRGRTIHVVGLDFDEQDENLQNLLAQVRKGRLKRLEAIAAKLEKKGIGGAYDGALALAANKEMVSRTHVAEFLIQAGHVKNKQQAFTKYLGDGKSCAVRHEWATLEDCVSAVNGAGGMAVIAHPMRYDLSATAKRNLFEEFKNLGGAGIEVHSGNCCKNDRLNYALLAERFGMLASAGSDFHRLNDFSGGILGACPELPENCKPVWEHFSRY	not soluble
MPELAISTDKVAFLIEKAREFDVKEGESDADSGSNGADDDMVDVLEDTGDDPVVQEISGFIAAMTEEEQIDLVALMRLGRGDGSIEEWDDLRREAAEGRNGRTARYLLGEPLLGDYLADGLDQFGLSWSDERTTPVV	not soluble
LKRDFIILGNGPRLQNSTYQCKHCDSKLQSTAELTSHLNIHNEEFQKRAKRQERRKQLLSKQKYADGAFADFKQE	soluble
VKIFERFRKACDEFFKKKGEFFKLLKEGMNANLEKKKALCEKAESLKDSTEWKETAEILTKLQKEWKTIGPVSKKYS	not soluble
MGSDKIHHHHHHQMEERLGNTSQELQSLQVQNIKLAGSLQHVAEKLCRELYNKAGAHRCSPCTEQWKWHGDNCYQFYKDSKSWEDCKYFCLSENSTMLKINKQEDLEFAASQSYSEFFYSYWTGLLRPDSGKAWLWMDGTPFTSELFHIIIDVTSPRSRDCVAILNGMIFSKDCKELKRCVCERRAGMVKPE	not soluble
MDFSLTEEQELLLASIRELITTNFPEEYFRTCDQNGTYPREFMRALADNGISMLGVPEEFGGIPADYVTQMLALMEVSKCGAPAFLITNGQCIHSMRRFGSAEQLRKTAESTLETGDPAYALALTEPGAGSDNNSATTTYTRKNGKVYINGQKTFITGAKEYPYMLVLARDPQPKDPKKAFTLWWVDSSKPGIKINPLHKIGWHMLSTCEVYLDNVEVEESDMVGEEGMGFLNVMYNFEMERLINAARSTGFAECAFEDAARYANQRIAFGKPIGHNQMIQEKLALMAIKIDNMRNMVLKVAWQADQHQSLRTSAALAKLYCARTAMEVIDDAIQIMGGLGYTDEARVSRFWRDVRCERIGGGTDEIMIYVAGRQILKDYQNK	soluble
MNYDAKQPPANLADSIQQKETVQALYDLLDKNMADFDASLAGMDKAETADLKEVSDTREIYDFIRYHYGEFGQREAELLLRMENPLNFIVENWPCHNLETLAMNYLADKTIKEPNKKEMPQSGHDTKDAEKPSILKQIKTNQGQIKANRQETRQQSITAERPRDGEAR	not soluble
MGHHHHHHSHGNLVTELIYVHSKLLIADDNTVIIGSANINDRSMLGKRDSEMAVIVQDTETVPSVMDGKEYQAGRFARGLRLQCFRVVLGYLDDPSEDIQDPVSDKFFKEVWVSTAARNATIYDKVFRCLPNDEVHNLIQLRDFINKPVLAKEDPIRAEEELKKIRGFLVQFPFYFLSEESLLPSVGTKEAIVPMEVWT	not soluble
MGSDKIHHHHHHMGNTVAMILAGGQGTRLGVLTERIAKPAVPFGGKYRLIDFTLSNCVNSGIYRVGVLTQYRPHVLSKHIGIGRPWDLDRKDGGVEILPPYVGRHESDWYKGTANAVYQNLEFLEENDAELVLILSGDHVYAMNYNDLIDYHLLKEADGTIACMEVPIEEASRFGIMITDVDGRIVDFEEKPAKPRSNLASLGIYVFNYEFLKKVLIEDENDPNSSHDFGKDVIPRILRENLGSLYAFRFDGYWRDVGTLRSYWEANLELVLPVPPFNLYDPNWRFFTHTEEMPPAYVAPGSKVSTSLVSEGAEVYGNVFNSVIFQGVKIGRGTVVKNSVIMTRTEIGENCYLENVIIAENVKIGSNVRMGVGEDAESKLDPKVYSGLLTVVGMNSVIPDDMVIGKNCVIGIGVRPEDFKSKTLESGDYVIVREE	not soluble
MFPERLRALRRGQKMTLAQLAAALNQMPTADKTTRQNTAAQIGNWERDLRTPSYLEVRKLAEFFNVTTDYLSGKSDQEEYDLGRIFLSGKPLTFNQEQLSSEDRYELFQLMDGYLHGRQHRVSTDATGQEELDLHFDD	not soluble
GMDTPANKPCIICVAITGSVPTKADNPAVPITVSEQVESTQEAFEAGAAIAHCHVRNDDGTPSSDPDRFARLTEGLHTHCPGMIVQFSTGGRSGAGQARGGMLPLKPDMASLSVGSNNFPSRVYENPPDLVDWLAAQMRSYRVTPEIEAFDLSHILRAIDMHGRGLLYGKLYVQFVMGVKNAMPADREVFDFYVRMMRTRAPQAEWCAAGIGANQLTVNEWAIAAGGHTRTGLEDNIRLDRQTLAPSNAALVRRSVELCDKYQRPVASWQQAREILGLPAAARN	soluble
MAMIKVDQHYFELIENYRECFNEEQFIARYSDILDKYDYIVGDYGYDQLRLKGFYKDSNKKAEMSKRFSNIQDYIFEYCNFGCPYFVLRHLSKQEVKKLIEEVHPSDVIDDDNKLQDVKIKPTIQDTEHLEHHHHHH	soluble
MRAPEESLREVLARFPQVQAAFLFGSRAEGRARADSDWDLALLLSPEEPDPTLEVLGALVEAGLERVDLVLLHRAPPLLAFLAVKGKPVFLREGFDLGSYVSRVAREWWDTEPLLRVQREALTLKRRWLDPS	soluble
MSCPVIELTQQLIRRPSLSPDDAGCQALLIERLQAIGFTVERMDFADTQNFWAWRGQGETLAFAGHTDVVPPGDADRWINPPFEPTIRDGMLFGRGAADMKGSLAAMVVAAERFVAQHPNHTGRLAFLITSDEEASAHNGTVKVVEALMARNERLDYCLVGEPSSIEVVGDVVKNGRRGSLTCNLTIHGVQGHVAYPHLADNPVHRAAPFLNELVAIEWDQGNEFFPATSMQIANIQAGTGSNNVIPGELFVQFNFRFSTELTDEMIKAQVLALLEKHQLRYTVDWWLSGQPFLTARGKLVDAVVNAVEHYNEIKPQLLTTGGTSDGRFIARMGAQVVELGPVNATIHKINECVNAADLQLLARMYQRIMEQLVA	soluble
MNIHEYQGKAVLRSYGVSVPNGKVAFTVEEAVEAAKELGTDVCVVKAQIHAGGRGKAGGVKVAKNLDEVRTYAESILGTTLVTHQTGPEGKEVKRLLIEEGCDIKKEYYVGLVLDRATSQVVLMASEEGGTEIEEVAEKTPEKIFKEYIDPAVGLQGFQARRIAFNINIPKELVGQAVKFMMGLYRAFIEKDCSIAEINPLVTTGDGKVMALDAKLNFDSNALYRHKDILELRDLDEEDAKEIEASKYDLNYIPLDGNIGCMVNGAGLAMATMDIIKHYHGDPANFLDVGGGATAEKVTEAFKIILSDKNVKGIFVNIFGGIMKCDVIAEGVIEATKQVGLELPLVVRLEGTNVELGKKILNESGLNIVAAESMTDGAQKIVSLVG	not soluble
